According to patent US20200317768A1 (published 2020):
Substitutions are numbered along the chain they refer to.

B1: MS_M103205H795-SG1/M103202L889-SK1 (antibody, human IgG1, kappa)
heavy: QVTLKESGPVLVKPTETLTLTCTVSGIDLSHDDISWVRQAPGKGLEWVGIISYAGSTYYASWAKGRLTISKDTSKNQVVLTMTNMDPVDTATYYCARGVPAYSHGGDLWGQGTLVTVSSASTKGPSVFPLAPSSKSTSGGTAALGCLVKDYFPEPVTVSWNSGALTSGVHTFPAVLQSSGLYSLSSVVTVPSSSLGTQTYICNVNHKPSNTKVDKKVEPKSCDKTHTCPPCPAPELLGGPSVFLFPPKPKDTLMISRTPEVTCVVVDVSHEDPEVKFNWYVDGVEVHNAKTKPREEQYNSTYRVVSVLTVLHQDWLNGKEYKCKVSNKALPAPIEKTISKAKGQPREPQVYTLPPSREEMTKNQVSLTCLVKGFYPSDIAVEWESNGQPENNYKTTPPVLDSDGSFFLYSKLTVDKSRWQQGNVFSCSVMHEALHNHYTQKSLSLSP
light: DIVMTQSPATLSLSPGERATLSCTSSQSVYHANWLSWFQQKPGQPPKLLIYWASTLAYGVPSRFSGSGSGTDFTLTISSLQPEDAATYYCAGGYGGGRYAFGQGTKVEIKRTVAAPSVFIFPPSDEQLKSGTASVVCLLNNFYPREAKVQWKVDNALQSGNSQESVTEQDSKDSTYSLSSTLTLSKADYEKHKVYACEVTHQGLSSPVTKSFNRGEC
notes: Parent antibody with heavy chain constant region SG1; also called MS1032LO06-SG1; copies: 2 + 2
B2: M103205H795-MY523/M103202L889-SK1 (antibody, human IgG1, kappa)
heavy: QVTLKESGPVLVKPTETLTLTCTVSGIDLSHDDISWVRQAPGKGLEWVGIISYAGSTYYASWAKGRLTISKDTSKNQVVLTMTNMDPVDTATYYCARGVPAYSHGGDLWGQGTLVTVSSASTKGPSVFPLAPSSKSTSGGTAALGCLVKDYFPEPVTVSWNSGALTSGVHTFPAVLQSSGLYSLSSVVTVPSSSLGTQTYICNVNHKPSNTKVDKKVEPKSCDKTHTCPPCPGPELLTGPVVFLFPPKPKDTLMISRTPEVTCVVVDVSDEDPEVKFNWYVDGVEVHNAKTKPREELYNSTYRVVSVLTVLHQDWLNGKEYKCKVSNKALPKPIEKTISKAKGQPREPQVYTLPPSREEMTKNQVSLTCLVKGFYPSDIAVEWESNGQPENNYKTTPPVLDSDGSFFLYSKLTVDKSRWQQGNVFSCSVMHEALHNHYTQKSLSLSP
light: B1 light
notes: Substitutions introduced into M103205H795-SG1, expressed with M103202L889-SK1 as light chain; EU numbering
B3: M103205H795-MY520/M103202L889-SK1 (antibody, human IgG1, kappa)
heavy: B2 heavy with G233A, P234D
light: B1 light
notes: as for B2
B4: M103205H795-MY400/M103202L889-SK1 (antibody, human IgG1, kappa)
heavy: B2 heavy with G233A, V241S, L297Q, P333E
light: B1 light
notes: as for B2
B5: M103205H795-MY522/M103202L889-SK1 (antibody, human IgG1, kappa)
heavy: B2 heavy with L297Q
light: B1 light
notes: as for B2
B6: M103205H795-MY521/M103202L889-SK1 (antibody, human IgG1, kappa)
heavy: B2 heavy with G233A, P234D, V241S
light: B1 light
notes: as for B2
B7: M103205H795-MY526/M103202L889-SK1 (antibody, human IgG1, kappa)
heavy: B2 heavy with G233T
light: B1 light
notes: as for B2
B8: M103205H795-MY532/M103202L889-SK1 (antibody, human IgG1, kappa)
heavy: B2 heavy with G233A, L236W, L297Q
light: B1 light
notes: as for B2
B9: M103205H795-MY388/M103202L889-SK1 (antibody, human IgG1, kappa)
heavy: B2 heavy with G233A, V241I, L297Q
light: B1 light
notes: as for B2
B10: M103205H795-MY525/M103202L889-SK1 (antibody, human IgG1, kappa)
heavy: B2 heavy with G233T, L297Q
light: B1 light
notes: as for B2
B11: M103205H795-MY392/M103202L889-SK1 (antibody, human IgG1, kappa)
heavy: B2 heavy with G233A, V241S, L297Q, S300L
light: B1 light
notes: as for B2
B12: M103205H795-MY265/M103202L889-SK1 (antibody, human IgG1, kappa)
heavy: B2 heavy with G233A, V241S, L297Q
light: B1 light
notes: also called MS103205H795-MY265; copies: 2 + 2
B13: M103205H795-MY527/M103202L889-SK1 (antibody, human IgG1, kappa)
heavy: B2 heavy with G233T, V241S
light: B1 light
notes: as for B2
B14: M103205H795-MY524/M103202L889-SK1 (antibody, human IgG1, kappa)
heavy: B2 heavy with V241S
light: B1 light
notes: as for B2
B15: M103205H795-MY528/M103202L889-SK1 (antibody, human IgG1, kappa)
heavy: B2 heavy with G233A, L236W, V241S, L297Q
light: B1 light
notes: as for B2
B16: M103205H795-MY531/M103202L889-SK1 (antibody, human IgG1, kappa)
heavy: B2 heavy with G233A, L236W, V241S, L297Q, K328T
light: B1 light
notes: as for B2
B17: M103205H795-MY530/M103202L889-SK1 (antibody, human IgG1, kappa)
heavy: B2 heavy with G233A, V241S, L297Q, K328T
light: B1 light
notes: as for B2
B18: M103205H795-MY514/M103202L889-SK1 (antibody, human IgG1, kappa)
heavy: B2 heavy with G233A, L297Q, S300L
light: B1 light
notes: as for B2
B19: M103205H795-MY529/M103202L889-SK1 (antibody, human IgG1, kappa)
heavy: B2 heavy with G233A, L236W, V241S
light: B1 light
notes: as for B2
B20: M103205H795-MY516/M103202L889-SK1 (antibody, human IgG1, kappa)
heavy: B2 heavy with G233A, S300L
light: B1 light
notes: as for B2
B21: M103205H795-MY389/M103202L889-SK1 (antibody, human IgG1, kappa)
heavy: B2 heavy with G233A, V241L, L297Q
light: B1 light
notes: as for B2
B22: M103205H795-MY515/M103202L889-SK1 (antibody, human IgG1, kappa)
heavy: B2 heavy with G233A, V241S, S300L
light: B1 light
notes: as for B2

Experiments:
[1] = biological target: T1, cynomolgus monkey FcγRIIa1 extracellular domain, His-tagged (cynomolgus monkey); test: SPR (BIACORE); KD of SG1 divided by KD of variant;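 further: relative to parent M103205H795-SG1 carrying the SG1 human heavy chain constant region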
T1 construct: also called cyno FcγRIIa1; cynoFcgRIIa1; not shown: C-terminal His-tag
T1 chain: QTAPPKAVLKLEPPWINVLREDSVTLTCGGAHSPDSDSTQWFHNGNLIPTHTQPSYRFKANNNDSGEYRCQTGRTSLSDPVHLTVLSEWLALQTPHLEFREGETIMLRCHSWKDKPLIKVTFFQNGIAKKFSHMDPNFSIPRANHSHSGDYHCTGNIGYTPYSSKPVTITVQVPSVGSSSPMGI
Protocol: (§1) The kinetic analysis of interactions between these antibodies and FcγR was carried out using BIACORE® T200 or BIACORE® 4000 (GE Healthcare). HBS-EP+ (GE Healthcare) was used as the running buffer, and the measurement temperature was set to 25° C. A chip produced by immobilizing Protein A. Protein A/G or mouse anti-human IgG kappa light chain (BD Biosciences) onto a Series S Sensor Chip CM4 or CM5 (GE Healthcare) by the amine-coupling method was used. […] After the measurement, the antibody captured on the chip was washed off by allowing reaction with 10 mM glycine-HCl, pH1.5 and 25 mM NaOH so that the chip was regenerated and used repeatedly. The sensorgrams obtained as measurement results were analyzed by the 1:1 Langmuir binding model using the BIACORE® Evaluation Software to calculate the binding rate constant ka (L/mol/s) and dissociation rate constant kd (l/s), and the dissociation constant KD (mol/L) was calculated from these values. […] Regarding such interactions, KD values were calculated using the following 1:1 binding model described in BIACORE® T100 Software Handbook BR1006-48 Edition AE.

[2] = biological target: T2, cynomolgus monkey FcγRIIa2 extracellular domain, His-tagged (cynomolgus monkey); test: SPR (BIACORE); KD of SG1 divided by KD of variant;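 further: relative to parent M103205H795-SG1 carrying the SG1 human heavy chain constant region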
T2 construct: also called cyno FcγRIIa2; cynoFcgRIIa2; not shown: C-terminal His-tag
T2 chain: T1 chain with P95T, T121A, I127K, A128S, K130N, D135N, R142Q
Protocol: as §1

[3] = biological target: T3, cynomolgus monkey FcγRIIa3 extracellular domain, His-tagged (cynomolgus monkey); test: SPR (BIACORE); KD of SG1 divided by KD of variant;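 further: relative to parent M103205H795-SG1 carrying the SG1 human heavy chain constant region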
T3 construct: also called cyno FcγRIIa3; cynoFcgRIIa3; not shown: C-terminal His-tag
T3 chain: T1 chain with P95T, T121A, A128S, H133P, D135N
Protocol: as §1

[4] = biological target: T4, cynomolgus monkey FcγRIIb extracellular domain, His-tagged (cynomolgus monkey); test: SPR (BIACORE); KD of SG1 divided by KD of variant;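 further: relative to parent M103205H795-SG1 carrying the SG1 human heavy chain constant region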
T4 construct: also called cyno FcγRIIb; cynoFcγRIIb; not shown: C-terminal His-tag
T4 chain: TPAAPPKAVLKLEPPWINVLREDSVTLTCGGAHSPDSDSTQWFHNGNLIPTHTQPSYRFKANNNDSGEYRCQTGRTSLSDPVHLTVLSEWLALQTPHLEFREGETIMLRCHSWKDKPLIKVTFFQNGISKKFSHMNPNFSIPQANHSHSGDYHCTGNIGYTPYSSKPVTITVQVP
Protocol: as §1

[5] = biological target: T5, cynomolgus monkey FcγRIIIaS extracellular domain, His-tagged (cynomolgus monkey, UniProt Q8SPW2 21-206 at identity 1.00)); test: SPR (BIACORE); KD of SG1 divided by KD of variant
T5 construct: also called cyno FcγRIIIaS; cynoFcγRIIIaS; not shown: C-terminal His-tag
T5 chain: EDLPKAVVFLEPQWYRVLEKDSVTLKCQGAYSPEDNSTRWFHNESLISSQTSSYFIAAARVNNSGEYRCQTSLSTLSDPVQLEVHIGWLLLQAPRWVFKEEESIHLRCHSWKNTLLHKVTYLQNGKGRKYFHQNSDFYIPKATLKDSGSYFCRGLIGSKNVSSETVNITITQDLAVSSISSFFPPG
Protocol: as §1

[6] = biological target: T6, human FcγRIIaR extracellular domain, His-tagged (human, UniProt P12318 34-217); test: SPR (BIACORE); KD of SG1 divided by KD of variant
T6 construct: also called human FcγRIIa (type R); FcgRIIaR; not shown: C-terminal His-tag
T6 chain: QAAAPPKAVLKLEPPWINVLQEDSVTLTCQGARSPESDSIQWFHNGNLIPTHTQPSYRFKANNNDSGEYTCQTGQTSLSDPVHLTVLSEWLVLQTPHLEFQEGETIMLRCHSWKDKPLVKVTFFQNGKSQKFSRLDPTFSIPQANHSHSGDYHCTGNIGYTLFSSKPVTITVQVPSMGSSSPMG
Protocol: as §1

[7] = biological target: T7, human FcγRIIIaV extracellular domain, His-tagged (human, UniProt P08637 17-208); test: SPR (BIACORE); KD of SG1 divided by KD of variant
T7 construct: also called FcgRIIIaV; not shown: C-terminal His-tag
T7 sequence (P08637 17-208 F176V): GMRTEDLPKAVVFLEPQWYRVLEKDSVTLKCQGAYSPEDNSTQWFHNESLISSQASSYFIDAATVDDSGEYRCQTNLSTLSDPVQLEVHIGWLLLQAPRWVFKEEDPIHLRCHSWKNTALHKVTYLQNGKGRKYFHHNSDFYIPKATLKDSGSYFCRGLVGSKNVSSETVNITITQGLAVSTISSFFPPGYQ
Protocol: as §1

[8] = biological target: T8, human FcγRIIIaV extracellular domain with C-terminal His-tag (human, UniProt P08637 17-208); test: SPR (BIACORE), antibody captured, FcgR analyte
T8 construct: also called human FcgRIIIaV
T8 sequence (P08637 17-208 F176V): as above

Kd [8]	other results	Binder
	KD fold (SG1 = 1) [1]: 1 fold; KD fold (SG1 = 1) [2]: 1 fold; KD fold (SG1 = 1) [3]: 1 fold; KD fold (SG1 = 1) [4]: 1 fold; KD fold (SG1 = 1) [5]: 1 fold; KD fold (SG1 = 1) [6]: 1 fold; KD fold (SG1 = 1) [7]: 1 fold	B1
5.5 µM		B2
3.5 µM		B3
7.8 µM		B4
5.7 µM		B5
5.2 µM		B6
4.3 µM		B7
1.7 µM		B8
4.3 µM		B9
4.3 µM		B10
8.3 µM		B11
	KD fold (SG1 = 1) [1]: 1.5 fold; KD fold (SG1 = 1) [2]: 2.7 fold; KD fold (SG1 = 1) [3]: 3.5 fold; KD fold (SG1 = 1) [4]: 3.1 fold; KD fold (SG1 = 1) [5]: 0.2 fold; KD fold (SG1 = 1) [6]: 2.5 fold; KD fold (SG1 = 1) [7]: 0.2 fold	B12
4.3 µM		B13
4.5 µM		B14
4.2 µM		B15
2.9 µM		B16
3.6 µM		B17
8.8 µM		B18
4 µM		B19
6.7 µM		B20
3.5 µM		B21
9 µM		B22
